From paper PMC8878332, “The C-Terminal Domain of Staphylococcus aureus Zinc Transport Protein AdcA Binds Plasminogen and Factor H In Vitro” (Pathogens, 2022) come the findings set out here.

This test has as its target T1, Human plasminogen (human).
T1 construct: human plasminogen, 92 kDa, commercial; also called PLG; purified plasminogen; source: bought: Sigma-Aldrich
In words: ELISA; plasminogen immobilised on plate wells (1 ug in 100 uL PBS), blocked with 1% gelatin; AdcA 0-1 uM in PBS, 1.5 h at 37 C; bound AdcA detected with rabbit anti-AdcA serum; apparent KD from the fit to total binding saturation (GraphPad Prism); MntC run as control; EACA (0.1-10 mM) or NaCl (25-800 mM) added in further panels. The settings on record: both partners purified. (In general: An ELISA detects its analyte on a solid surface through an enzyme-linked reagent.)

T1 sequence (P00747 20-810): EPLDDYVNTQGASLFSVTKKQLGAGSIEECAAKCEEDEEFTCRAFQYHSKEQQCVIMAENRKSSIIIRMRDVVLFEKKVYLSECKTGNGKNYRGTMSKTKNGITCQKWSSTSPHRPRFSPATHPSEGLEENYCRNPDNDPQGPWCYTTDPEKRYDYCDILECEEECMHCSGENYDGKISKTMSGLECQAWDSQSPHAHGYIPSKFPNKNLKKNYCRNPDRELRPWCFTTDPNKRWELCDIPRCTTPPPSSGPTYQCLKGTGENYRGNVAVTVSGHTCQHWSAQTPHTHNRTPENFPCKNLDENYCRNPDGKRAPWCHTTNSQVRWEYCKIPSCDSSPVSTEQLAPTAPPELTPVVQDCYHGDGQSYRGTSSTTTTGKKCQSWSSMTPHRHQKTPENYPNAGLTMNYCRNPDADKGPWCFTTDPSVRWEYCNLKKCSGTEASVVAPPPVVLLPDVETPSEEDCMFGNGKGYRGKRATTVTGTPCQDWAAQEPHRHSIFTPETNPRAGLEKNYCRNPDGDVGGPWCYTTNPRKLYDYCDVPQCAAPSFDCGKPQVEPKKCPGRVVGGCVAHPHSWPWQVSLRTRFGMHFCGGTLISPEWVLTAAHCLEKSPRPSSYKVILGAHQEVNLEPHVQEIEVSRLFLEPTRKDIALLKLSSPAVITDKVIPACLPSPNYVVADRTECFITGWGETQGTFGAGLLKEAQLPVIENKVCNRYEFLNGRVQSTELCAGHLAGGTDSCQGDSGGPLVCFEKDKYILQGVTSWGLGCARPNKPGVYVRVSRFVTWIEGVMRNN

B1: MntC from Staphylococcus aureus (natural protein)
chain: CGTGGKQSSDKSNGKLKVVTTNSILYDMAKNVGGDNVDIHSIVPVGQDPHEYEVKPKDIKKLTDADVILYNGLNLETGNGWFEKALEQAGKSLKDKKVIAVSKDVKPIYLNGEEGNKDKQDPHAWLSLDNGIKYVKTIQQTFIDNDKKHKADYEKQGNKYIAQLEKLNNDSKDKFNDIPKEQRAMITSEGAFKYFSKQYGITPGYIWEINTEKQGTPEQMRQAIEFVKKHKLKHLLVETSVDKKAMESLSEETKKDIFGEVYTDSIGKEGTKGDSYYKMMKSNIETVHGSMK
On to B1, for which the Kd worked out at 14.8 nM.
